T1: B3GNT2 (Homo sapiens, UniProt Q9NY97)
T1 construct: The respective ORFs of candidate genes [CD274 (NM_014143), MCL1 (NM_021960), JUNB (NM_002229), and B3GNT2 (NM_006577)] were synthesized; expressed in transfected cells; host or cells: A375 melanoma cells (lentiviral ORF overexpression)
T1 sequence (Q9NY97 1-397): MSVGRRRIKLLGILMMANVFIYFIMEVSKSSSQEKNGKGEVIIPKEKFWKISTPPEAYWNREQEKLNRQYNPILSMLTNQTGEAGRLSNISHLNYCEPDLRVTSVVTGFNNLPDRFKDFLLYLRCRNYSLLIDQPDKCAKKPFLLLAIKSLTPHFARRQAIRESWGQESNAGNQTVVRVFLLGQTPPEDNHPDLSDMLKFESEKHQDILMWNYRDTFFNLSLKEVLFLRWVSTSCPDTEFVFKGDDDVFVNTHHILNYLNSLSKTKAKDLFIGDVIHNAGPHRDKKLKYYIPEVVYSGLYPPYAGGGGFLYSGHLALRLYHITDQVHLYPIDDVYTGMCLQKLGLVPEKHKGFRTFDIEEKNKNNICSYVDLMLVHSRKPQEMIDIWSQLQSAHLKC

B1: ATXN2L (protein)
chain: MLKPQPLQQPSQPQQPPPTQQAVARRPPGGTSPPNGGLPGPLATSAAPPGPPAAASPCLGPVAAAGSGLRRGAEGILAPQPPPPQQHQERPGAAAIGSARGQSTGKGPPQSPVFEGVYNNSRMLHFLTAVVGSTCDVKVKNGTTYEGIFKTLSSKFELAVDAVHRKASEPAGGPRREDIVDTMVFKPSDVMLVHFRNVDFNYATKDKFTDSAIAMNSKVNGEHKEKVLQRWEGGDSNSDDYDLESDMSNGWDPNEMFKFNEENYGVKTTYDSSLSSYTVPLEKDNSEEFRQRELRAAQLAREIESSPQYRLRIAMENDDGRTEEEKHSAVQRQGSGRESPSLASREGKYIPLPQRVREGPRGGVRCSSSRGGRPGLSSLPPRGPHHLDNSSPGPGSEARGINGGPSRMSPKAQRPLRGAKTLSSPSNRPSGETSVPPPPAVGRMYPPRSPKSAAPAPISASCPEPPIGSAVPTSSASIPVTSSVSDPGVGSISPASPKISLAPTDVKELSTKEPGRTLEPQELARIAGKVPGLQNEQKRFQLEELRKFGAQFKLQPSSSPENSLDPFPPRILKEEPKGKEKEVDGLLTSEPMGSPVSSKTESVSDKEDKPPLAPSGGTEGPEQPPPPCPSQTGSPPVGLIKGEDKDEGPVAEQVKKSTLNPNAKEFNPTKPLLSVNKSTSTPTSPGPRTHSTPSIPVLTAGQSGLYSPQYISYIPQIHMGPAVQAPQMYPYPVSNSVPGQQGKYRGAKGSLPPQRSDQHQPASAPPMMQAAAAAGPPLVAATPYSSYIPYNPQQFPGQPAMMQPMAHYPSQPVFAPMLQSNPRMLTSGSHPQAIVSSSTPQYPSAEQPTPQALYATVHQSYPHHATQLHAHQPQPATTPTGSQPQSQHAAPSPVQHQAGQAPHLGSGQPQQNLYHPGALTGTPPSLPPGPSAQSPQSSFPQPAAVYAIHHQQLPHGFTNMAHVTQAHVQTGITAAPPPHPGAPHPPQVMLLHPPQSHGGPPQGAVPQSGVPALSASTPSPYPYIGHPQGEQPGQAPGFPGGADDRIREFSLAGGIWHGRAEGLQVGQDARVLGGE
B2: SDF4 (protein)
chain: RPANHSSTRERVANREENEILPPDHLNGVKLEMDGHLNRGFHQEVFLGKDLGGFDEDAEPRRSRRKLMVIFSKVDVNTDRKISAKEMQRWIMEKTAEHFQEAMEESKTHFRAVDPDGDGHVSWDEYKVKFLASKGHSEKEVADAIRLNEELKVDEETQEVLENLKDRWYQADSPPADLLLTEEEFLSFLHPEHSRGMLRFMVKEIVRDLDQDGDKQLSVPEFISLPVGTVENQQGQDIDDNWVKDRKKEFEELIDSNHDGIVTAEELESYMDPMNEYNALNEAKQMIAVADENQNHHLEPEEVLKYSEFFTGSKLVDYARSVHEEF
B3: RARS (protein)
chain: MDVLVSECSARLLQQEEEIKSLTAEIDRLKNCGCLGASPNLEQLQEENLKLKYRLNILRKSLQAERNKPTKNMINIISRLQEVFGHAIKAAYPDLENPPLLVTPSQQAKFGDYQCNSAMGISQMLKTKEQKVNPREIAENITKHLPDNECIEKVEIAGPGFINVHLRKDFVSEQLTSLLVNGVQLPALGENKKVIVDFSSPNIAKEMHVGHLRSTIIGESISRLFEFAGYDVLRLNHVGDWGTQFGMLIAHLQDKFPDYLTVSPPIGDLQVFYKESKKRFDTEEEFKKRAYQCVVLLQGKNPDITKAWKLICDVSRQELNKIYDALDVSLIERGESFYQDRMNDIVKEFEDRGFVQVDDGRKIVFVPGCSIPLTIVKSDGGYTYDTSDLAAIKQRLFEEKADMIIYVVDNGQSVHFQTIFAAAQMIGWYDPKVTRVFHAGFGVVLGEDKKKFKTRSGETVRLMDLLGEGLKRSMDKLKEKERDKVLTAEELNAAQTSVAYGCIKYADLSHNRLNDYIFSFDKMLDDRGNTAAYLLYAFTRIRSIARLANIDEEMLQKAARETKILLDHEKEWKLGRCILRFPEILQKILDDLFLHTLCDYIYELATAFTEFYDSCYCVEKDRQTGKILKVNMWRMLLCEAVAAVMAKGFDILGIKPVQRM
B4: HNRNPA1 (protein)
chain: SKSESPKEPEQLRKLFIGGLSFETTDESLRSHFEQWGTLTDCVVMRDPNTKRSRGFGFVTYATVEEVDAAMNARPHKVDGRVVEPKRAVSREDSQRPGAHLTVKKIFVGGIKEDTEEHHLRDYFEQYGKIEVIEIMTDRGSGKKRGFAFVTFDDHDSVDKIVIQKYHTVNGHNCEVRKALSKQEMASASSSQRGRSGSGNFGGGRGGGFGGNDNFGRGGNFSGRGGFGGSRGGGGYGGSGDGYNGFGNDGGYGGGGPGYSGGSRGYGSGGQGYGNQGSGYGGSGSYDSYNNGGGGGFGGGSGSNFGGGGSYNDFGNYNNQSSNFGPMKGGNFGGRSSGPYGGGGQYFAKPRNQGGYGGSSSSSSYGSGRRF
B5: SPRR2E (protein)
chain: MSYQQQQCKQPCQPPPVCPTPKCPEPCPPPKCPEPCPPPKCPQPCPPQQCQQKCPPVTPSPPCQPKCPPKSK
B6: DNAJB11 (protein)
chain: GRDFYKILGVPRSASIKDIKKAYRKLALQLHPDRNPDDPQAQEKFQDLGAAYEVLSDSEKRKQYDTYGEEGLKDGHQSSHGDIFSHFFGDFGFMFGGTPRQQDRNIPRGSDIIVDLEVTLEEVYAGNFVEVVRNKPVARQAPGKRKCNCRQEMRTTQLGPGRFQMTQEVVCDECPNVKLVNEERTLEVEIEPGVRDGMEYPFIGEGEPHVDGEPGDLRFRIKVVKHPIFERRGDDLYTNVTISLVESLVGFEMDITHLDGHKVHISRDKITRPGAKLWKKGEGLPNFDNNNIKGSLIITFDVDFPKEQLTEEAREGIKQLLKQGSVQKVYNGLQGY
B7: SSR1 (protein)
chain: VLFRGGPRGLLAVAQDLTEDEETVEDSIIEDEDDEAEVEEDEPTDLVEDKEEEDVSGEPEASPSADTTILFVKGEDFPANNIVKFLVGFTNKGTEDFIVESLDASFRYPQDYQFYIQNFTALPLNTVVPPQRQATFEYSFIPAEPMGGRPFGLVINLNYKDLNGNVFQDAVFNQTVTVIEREDGLDGETIFMYMFLAGLGLLVIVGLHQLLESRKRKRPIQKVEMGTSSQNDVDMSWIPQETLNQINKASPRRLPRKRAQKRSVGSDE
B8: DSTN (protein)
chain: ASGVQVADEVCRIFYDMKVRKCSTPEEIKKRKKAVIFCLSADKKCIIVEEGKEILVGDVGVTITDPFKHFVGMLPEKDCRYALYDASFETKESRKEELMFFLWAPELAPLKSKMIYASSKDAIKKKFQGIKHECQANGPEDLNRACIAEKLGGSLIVAFEGCPV

molecular target: T1, B3GNT2; test: Co-IP of FLAG-tagged B3GNT2 followed by mass spectrometry; format: cell-based; set-up: C-term IgG / C-term flag: unit not given here; conditions: Co-IP followed by mass spectrometry of B3GNT2; C-term tag, FLAG pull-down
Method: Cells were plated in 10-cm cell culture dishes and grown to 60-80% confluency. For each condition, two biological replicates were harvested for co-IP. Cells were washed with PBS and 4 mL of lysis buffer (20 mM HEPES, 1% Triton X-100, 150 mM NaCl, 1 mM EDTA, and 10% glycerol) containing protease inhibitor cocktail was added. Cells were scraped and lysate was incubated at 4° C. under rotary agitation for 1 h. Lysate was centrifuged at 14,000×g for 10 min at 4° C. Supernatant was transferred to a new tube and an aliquot was taken as the input. […] For Western blots, 10 μg/mL Chicken Anti-FLAG (Aves labs ET-DY100) and IgY control (R&D Systems AB-101-C) antibodies were biotinylated (Thermo Fisher Scientific 90407) and added to the respective conditions. Lysates with antibodies were incubated at 4° C. under rotary agitation overnight. For each mL of lysate, 50 μL of Pierce Protein A/G Magnetic Beads (Mass spectrometry; Thermo Fisher Scientific 88803) or Pierce Streptavidin Magnetic Beads (Western blot; Thermo Fisher Scientific 88817) was washed twice with lysis buffer. Lysates with antibodies were added to the beads and incubated at 4° C. under rotary agitation for 4 h. Beads were washed with lysis buffer 3 times and resuspended in lysis buffer for storage. […] This solution was subjected to solid phase extraction to concentrate the peptides and remove unwanted reagents followed by injection onto a Shimadzu HPLC with fraction collector. Eight fractions were collected and after concentration were injected on a Waters NanoAcquity HPLC equipped with a self-packed Aeris 3 μm C18 analytical column 0.075 mm by 20 cm, (Phenomenex). Peptides were eluted using standard reverse-phase gradients. The effluent from the column was analyzed using a Thermo Orbitrap Elite mass spectrometer (nanospray configuration) operated in a data dependent manner for 54 minutes. […] Scaffold Q+S (Proteome Software) was used to provide consensus reports for the identified proteins.

Row | C-term flag | Molecule
1 | 5 | B1

same assay, conditions: Co-IP followed by mass spectrometry of B3GNT2; C-term tag, IgG pull-down

Row | C-term IgG | Molecule
2 | 2 | B1

same assay, conditions: Co-IP followed by mass spectrometry of B3GNT2; N-term tag, FLAG pull-down

Row | N-term FLAG | Molecule
3 | 5 | B1

same assay, conditions: Co-IP followed by mass spectrometry of B3GNT2; N-term tag, IgG pull-down

Row | N-term IgG | Molecule
4 | 3 | B1

same assay, conditions: Co-IP with FLAG antibody, C-terminally FLAG-tagged B3GNT2; mass spectrometry count, unit not given

Row | C-term flag | Molecule
5 | 7 | B2
6 | 2 | B3
7 | 9 | B4
8 | 0 | B5
9 | 4 | B6
10 | 4 | B7
11 | 3 | B8

same assay, conditions: Co-IP with FLAG antibody, N-terminally FLAG-tagged B3GNT2; mass spectrometry count, unit not given

Row | N-term FLAG | Molecule
12 | 0 | B2
13 | 0 | B3
14 | 7 | B4
15 | 16 | B5
16 | 3 | B6
17 | 3 | B7
18 | 0 | B8

same assay, conditions: Co-IP with IgG control antibody, C-terminally FLAG-tagged B3GNT2; mass spectrometry count, unit not given

Row | C-term IgG | Molecule
19 | 0 | B2
20 | 0 | B3
21 | 4 | B4
22 | 5 | B5
23 | 0 | B6
24 | 0 | B7
25 | 0 | B8

same assay, conditions: Co-IP with IgG control antibody, N-terminally FLAG-tagged B3GNT2; mass spectrometry count, unit not given

Row | N-term IgG | Molecule
26 | 0 | B2
27 | 0 | B3
28 | 4 | B4
29 | 3 | B5
30 | 0 | B6
31 | 0 | B7
32 | 0 | B8
